Results on 1 molecule are retold here after US12662540B2, “Compositions and methods for inhibition of MICA/B shedding” (DANA-FARBER CANCER INSTITUTE, INC., priority 2017, dated 2026).

For test [1], the system named is murine tumor cell lines (B16F10, CT26, Neuro-2a) expressing full-length MICA or MICB. In words: Shed and surface MICA/MICB in murine tumor cell lines transduced with full-length MICA or MICB. The format is cell-based, mouse. The conditions noted are these: B16F10 cells expressing MICA or MICB; comparison among mAbs. From the text:
B16F10, CT26, Neuro-2a, EL4 and RMA-S cell lines were transduced with lentiviral vector pHAGE-CMV-fullEF1a. MICA (allele 009) cDNA or other inserts were placed between NotI and BamHI cloning sites, 3′ to the EF1α promoter and 5′ to the IRES. ZsGreen or luciferase cDNAs were cloned 3′ to the IRES as fluorescence or bioluminescence reporters, respectively. The vector with the ZsGreen reporter was used to compare expression of cDNAs encoding full length MICA, full-length MICB and secreted MICA (Neuro-2a, RMA-S and/or B16F10 cell lines). CT26, EL4 and B16F10 cell lines were transduced with the vector that supported expression of the luciferase reporter. […]
Tumor cells (5×10^4 or 1×10^5 per well, depending on the cell line) were cultured for 24 to 72 hours in 96-well plates (flat-bottom plates for adherent cell lines, U-bottom plates for suspension cell lines). […] MICA or control antibodies were added at different concentrations, and shed MICA/B was then detected in supernatants by ELISA using the Human MICA ELISA kit (Ab59569, Abcam) or Human MICB DuoSet ELISA kit (DY1599, R&D Systems), using the procedures recommended by the manufacturers. […]
MICA and MICB were detected on the cell surface by the PE-conjugated anti-MICA/B antibody (clone 6D4, 320906, Biolegend). […] All samples were acquired in a BD LSR Fortessa flow cytometer, and analyzed by FlowJo V10 software.

For another test, the system named is CT26-MICA. Briefly: CT26 metastasis model. The note with it: antibody days 1, 2, 7, 14; count day 21. It is filed as in vivo, Balb/c mice. The procedure: Balb/c wild type mice were injected intravenously with 1×10^6 CT26-MICA, and treated with 7C6-mIgG2b or MPC-11 (isotype) administered intraperitoneally on days 1, 2, 7, and 14. Euthanasia was performed on day 21, followed by lung perfusion with 30% Indian ink through the trachea and fixation in Fekete's fixative. That procedure stains the lungs in black, while the metastases remain white, enabling counting of metastases under a stereomicroscope (24).
Balb/c wild type mice were injected intravenously with 1×10^6 CT26-MICA, and treated with 7C6-mIgG2b or MPC-11 (isotype) administered intraperitoneally on days 1, 2, 7, and 14. Euthanasia was performed on day 21, followed by lung perfusion with 30% Indian ink through the trachea and fixation in Fekete's fixative. That procedure stains the lungs in black, while the metastases remain white, enabling counting of metastases under a stereomicroscope.

B1: 7C6: monoclonal antibody from mice immunized with recombinant MICA α3 domain; parental mIgG2b; VH SEQ ID NO: 7, VL SEQ ID NO: 8 (antibody)
VH: QIQLVQSGPELKKPGETVKVSCKASGYMFTNYAMNWVKQAPEKGLKWMGWINTHTGDPTYADDFKGRIAFSLETSASTAYLQINNLKNEDTATYFCVRTYGNYAMDYWGQGTSVTVSSAKTTAPSVYPLAPVCGDTTGSSVTLGCLVKGYFPEPVTLTWNSGSLSSGVHTFPAVLQSDLYTLSSSVTVTSS
VL: DIQMTQTTSSLSASLGDRVTISCSASQDISNYLNWYQQKPDGTVKLLIYDTSILHLGVPSRFSGSGSGTDYSLTISNLEPEDIATYYCQQYSKFPRTFGGGTTLEIK
modifications: mAb 7C6 heavy chain amino acid sequence; mAb 7C6 light chain amino acid sequence
As to B1, in test [1], the “stabilization of MICA/B on the surface of tumor cells” value is “most effective in stabilizing MICAS on the surface of tumor cells”. For the same molecule, in the test on CT26-MICA, the “activity against CT26-MICA lung metastases” value is given as “demonstrated efficacy in a lung metastasis model”.
